Experimental findings from patent US6307035, “BRCA1 associated polynucleotide (BAP-1) and uses therefor” (The Wistar Institute of Anatomy and Biology, dated 2001) are described below.

In assay [1] the target is full length BRCA1 (human, UniProt P38398). Description: GST pull-down, SDS-PAGE and fluorography.
In assay [2] the target is GST (glutathione-S-transferase alone) (Schistosoma japonicum (Blood fluke), UniProt P08515 = GST). Description: GST pull-down, SDS-PAGE and fluorography.

B1: GST-hBAP1(483-594 of SEQ ID NO: 2) fusion protein lacking the minimal interaction domain (other)
chain: QPSPTPSNESTDTASEIGSAFNSPLRSPIRSANPTRPSSPVTSHISKVLFGEDDSLLRVDCIRYNRAVRDLGPVISTGLLHLAEDGVLSPLALTEGGKGSSPSIRPIQGSQG
As to B1, the binding result in assay [1] was “no binding”.

B2: LexA-BRCA1-RF fusion construct (amino-terminal 100 amino acids of human BRCA1, wild type, fused to the LexA DNA-binding domain) (other)
chain: MDLSALRVEEVQNVINAMQKILECPICLELIKEPVSTKCDHIFCKFCMLKLLNQKKGPSQCPLCKNDITKRSLQESTRFSQLVEELLKIICAFQLDTGLE
Turning to B2, in assay [2], the binding result is “no binding”.
